Experimental data: US20210047394A1 (Hoffmann-La Roche, published 2021)
Substitutions are numbered along the chain they refer to.

Key:
[1] = target: T1, full-length Angiopoietin-2-His protein (R&D Systems #623-AN/CF or in house produced material) (human, UniProt O15123 19-496, limits assumed); assay: ANG-2 binding ELISA, coated ANG-2
T1 construct: also called human ANG-2; ANG-2-His; not shown: His tag
T1 sequence: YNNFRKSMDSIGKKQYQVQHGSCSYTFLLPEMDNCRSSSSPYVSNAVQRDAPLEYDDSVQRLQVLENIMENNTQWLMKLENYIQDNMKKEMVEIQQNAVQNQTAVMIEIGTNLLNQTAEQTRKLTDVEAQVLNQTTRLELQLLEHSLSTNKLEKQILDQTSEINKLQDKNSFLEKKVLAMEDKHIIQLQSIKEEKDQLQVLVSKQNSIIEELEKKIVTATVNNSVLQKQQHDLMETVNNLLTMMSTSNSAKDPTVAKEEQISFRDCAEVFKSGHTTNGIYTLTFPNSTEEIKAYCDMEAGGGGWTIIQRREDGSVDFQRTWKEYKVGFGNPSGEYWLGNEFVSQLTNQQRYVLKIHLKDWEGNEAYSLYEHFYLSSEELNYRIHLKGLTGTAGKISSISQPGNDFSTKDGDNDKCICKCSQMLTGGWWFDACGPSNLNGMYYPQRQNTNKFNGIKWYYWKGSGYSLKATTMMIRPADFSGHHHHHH

[2] = target: T2, Angiopoietin-1-His (R&D systems #923-AN) (human, UniProt Q15389 20-498, limits assumed); assay: ANG-1 binding ELISA, coated ANG-1
T2 construct: also called human ANG-1; hANG-1; not shown: His tag
T2 sequence: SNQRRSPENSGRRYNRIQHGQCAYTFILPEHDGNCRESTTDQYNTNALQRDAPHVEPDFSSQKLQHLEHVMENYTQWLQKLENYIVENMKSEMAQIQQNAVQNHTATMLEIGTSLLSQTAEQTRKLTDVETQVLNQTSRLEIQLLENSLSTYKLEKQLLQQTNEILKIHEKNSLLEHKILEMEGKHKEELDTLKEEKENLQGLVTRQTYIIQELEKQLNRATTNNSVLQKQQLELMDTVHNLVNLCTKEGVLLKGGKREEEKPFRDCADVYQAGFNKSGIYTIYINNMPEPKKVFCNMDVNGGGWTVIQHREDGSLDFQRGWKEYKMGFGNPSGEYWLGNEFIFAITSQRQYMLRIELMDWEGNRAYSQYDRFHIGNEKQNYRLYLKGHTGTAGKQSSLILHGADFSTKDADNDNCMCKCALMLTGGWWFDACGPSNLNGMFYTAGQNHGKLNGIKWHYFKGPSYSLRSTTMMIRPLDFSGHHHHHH

[3] = target: T1, full-length Angiopoietin-2-His protein …; assay: cell-based or functional assay
[4] = target: T1, full-length Angiopoietin-2-His protein …; assay: SPR (Biacore), antibody captured by secondary antibody, ANG-2 analyte; KD only a relative estimation
[5] = target: T3, rhVEGF (R&D Systems Cat. No. 293-VE) (human, UniProt P15692 181-395); assay: SPR (Biacore T100), antibody captured via anti-human IgG, rhVEGF analyte, 37 C
T3 construct: Analyte in the Biacore assays; also called VEGF-A

[6] = target: T3, rhVEGF (R&D Systems Cat. No. 293-VE); assay: SPR (Biacore), hVEGF affinity
[7] = target: T1, full-length Angiopoietin-2-His protein …; assay: SPR (Biacore T100), antibody captured via anti-hIgG-Fc, ANG-2-His analyte, 25 C; relative estimation
[8] = target: T4, full-length VEGF165-His protein (R&D Systems) (human, UniProt P15692 181-395); assay: VEGF binding ELISA, coated VEGF165
T4 construct: also called recombinant human VEGF165; VEGF-A; not shown: His tag

[9] = target: T3, rhVEGF (R&D Systems Cat. No. 293-VE); assay: SPR (Biacore), antibody on captured Ang-2, then rhVEGF
[10] = target: T1, full-length Angiopoietin-2-His protein …; assay: inhibition of huANG-2 binding to coated Tie-2 (ELISA)

T3 sequence (P15692 other isoform, or with tags, fused parts or gaps limits assumed): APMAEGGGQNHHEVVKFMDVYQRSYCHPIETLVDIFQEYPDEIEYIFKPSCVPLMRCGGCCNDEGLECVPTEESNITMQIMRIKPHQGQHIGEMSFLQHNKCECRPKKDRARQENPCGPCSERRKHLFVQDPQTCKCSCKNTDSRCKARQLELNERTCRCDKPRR
T4 sequence (P15692 other isoform, or with tags, fused parts or gaps): as the sequence (P15692 other isoform, or with tags, fused parts or gaps limits assumed) above

B1: <ANG-2>Ang2i_LC06 (antibody, V domains shown)
VH: not shown
VL: QPGLTQPPSVSVAPGQTARITCGGNNIGSKSVHWYQQKPGQAPVLVVYDDSDRPSGIPERFSGSNSGNTATLTISRVEAGDEADYYCQVWDSSSDHYVFGTGTKVTVLG
notes: Parent monospecific antibody
- EC50 [1]: 0.084 µg/mL
- EC50 [2]: > 8 µg/mL
- IC50, ANGPT2 stimulated Tie2 phosphorylation (HEK293-Tie2 cells), first experiment [3]: ~0.508 µg/mL
- IC50, ANGPT2 stimulated Tie2 phosphorylation (HEK293-Tie2 cells), second experiment [3]: ~0.424 µg/mL

B2: <ANG-2>Ang2i_LC07 (antibody, V domains shown)
VH: not shown
VL: QPVLTQSPSVSVAPGETARVACGGNFIGGKSVHWYQQKPGQAPVLVIYDDSERPSGIPERISGSNSGNTATLIITRAEAGDEADYHCQVWDSDSDQGVFGTGTKLTVLG
notes: Parent monospecific antibody
- EC50 [1]: 3.01 µg/mL
- EC50 [2]: > 8 µg/mL

B3: <ANG-2> Ang2k_LC08 (antibody, V domains shown)
VH: QVQLVESGGGVVQPGGSLRLSCAASGFTFSSYGMHWVRQAPGKGLEWVAVISYDGSNKYYADSVKGRFTISRDNSKNTLYLQMNSLRAEDTAVYYCAKPTLDIYMGYYYGMDVWGQGTTVTVSS
VL: QPVLTQPPSASGAPGQRVTISCSGFASNIGSNSVNWYQQVPGTAPKLLIYNNDQRPSGVPDRFSGSRSGTSASLAISGLQSEDEADYYCAAWDDSLNGPVFGGGTKLTVLG
notes: Parent monospecific antibody; also called <ANG-2>Ang2i-LC08
- EC50 [1]: 0.105 µg/mL
- EC50 [2]: 4.04 µg/mL
- IC50, ANGPT2 stimulated Tie2 phosphorylation (HEK293-Tie2 cells), first experiment [3]: ~0.499 µg/mL
- IC50, ANGPT2 stimulated Tie2 phosphorylation (HEK293-Tie2 cells), second experiment [3]: ~0.399 µg/mL

B4: disulfide-stabilized <VEGF-ANG-2> TvAb6 (bispecific antibody, IgG1)
heavy (part 1 of 2): EVQLVESGGGLVQPGGSLRLSCAASGFTISDYWIHWVRQAPGKGLEWVAGITPAGGYTYYADSVKGRFTISADTSKNTAYLQMNSLRAEDTAVYYCARFVFFLPYAMDYWGQGTLVTVSS
heavy (part 2 of 2): not shown
light: DIQMTQSPSSLSASVGDRVTITCRASQDVSTAVAWYQQKPGKAPKLLIYSASFLYSGVPSRFSGSGSGTDFTLTISSLQPEDFATYYCQQGYGNPFTFGQGTKVEIK
notes: Tetravalent: full-length IgG1 G6-31 with a VH44/VL100 disulfide-stabilized Mab536 scFv at the C-terminus of each heavy chain; also called TvAb6 (2331); No. 2331; not shown: IgG1 heavy chain constant region; light chain constant region
- Kd [4]: 4.4 nM
- Kd [5]: 0.00153 nM
- koff [5]: 7.24e-06 s⁻¹
- kon [5]: 4.72e+06 M⁻¹ s⁻¹
- t1/2 [5]: 26.6 h

B5: Bevacizumab-LC06-VH-VL (bispecific antibody, human IgG1, kappa)
heavy 1: not shown
heavy 2: not shown
light 1: QPGLTQPPSVSVAPGQTARITCGGNNIGSKSVHWYQQKPGQAPVLVVYDDSDRPSGIPERFSGSNSGNTATLTISRVEAGDEADYYCQVWDSSSDHYVFGTGTKVTVLRTVAAPSVFIFPPSDEQLKSGTASVVCLLNNFYPREAKVQWKVDNALQSGNSQESVTEQDSKDSTYSLSSTLTLSKADYEKHKVYACEVTHQGLSSPVTKSFNRGEC
light 2: EVQLVESGGGLVQPGGSLRLSCAASGYTFTNYGMNWVRQAPGKGLEWVGWINTYTGEPTYAADFKRRFTFSLDTSKSTAYLQMNSLRAEDTAVYYCAKYPHYYGSSHWYFDVWGQGTLVTVSSASVAAPSVFIFPPSDEQLKSGTASVVCLLNNFYPREAKVQWKVDNALQSGNSQESVTEQDSKDSTYSLSSTLTLSKADYEKHKVYACEVTHQGLSSPVTKSFNRGEC
notes: Bispecific, bivalent domain exchanged antibody (VH-VL exchange); also called Bevacizumab-LC06-CM-VH-VL
- Kd [6]: 0.1 nM

B6: Bevacizumab-LC06-VH-VL-SS (bispecific antibody, human IgG1, kappa)
heavy 1: not shown
heavy 2: not shown
light 1: B5 light 1 with T101C
light 2: B5 light 2
notes: Bispecific, bivalent domain exchanged antibody (VH-VL exchange and an additional VH44 VL100 disulfide bridge)
- Kd [6]: 0.1 nM

B7: <ANG-2> Mab536 (antibody, V domains shown)
VH: EVQLVQSGGGVVQPGRSLRLSCAASGFTFSSYGMHWVRQAPGKGLEWVSYISSSGSTIYYADSVKGRFTISRDNAKNSLYLQMNSLRAEDTAVYYCARDLLDYDILTGYGYWGQGTLVTVSS
VL: not shown
notes: monospecific 'standard' IgG1 antibody; also called Mab536 (1000)
- EC50 [1]: 0.133 µg/mL
- Kd [7]: 3 nM
- EC50 [2]: 2.54 µg/mL
- binding result [8]: no binding
- binding result [9]: no binding (tested: 150 nM VEGF)
- IC50 [10]: 0.015 µg/mL
- Kd [4]: 1.6 nM
